The record followed here is publication PMC4457833, “Effective Optimization of Antibody Affinity by Phage Display Integrated with High-Throughput DNA Synthesis and Sequencing Technologies” (PLoS ONE, 2015).

The test concerns the target T1, biotinylated recombinant dimeric ErbB2 ECD-Fc fusion protein (Homo sapiens, UniProt P04626, biotin (EZ-Link NHS-PEG4-Biotin labeling kit)).
T1 construct: ErbB2, extracellular domain (ECD); Cloned in the mammalian expression vector pSectag 2A; also called Bio-ECD; source: Expi293, transiently expressed, purified on Protein A, then biotinylated
The test is described as follows: SPR; Biacore 3000, 25°C; Bio-ECD (1 μg/ml in PBS) immobilised on SA sensor chip at about 300 RU; antibodies 10 μg/ml in PBS flowed at 30 μl/min, 15 min dissociation; regeneration 50 mM NaOH; triplicate. The note with it: both partners purified. A general note: Surface plasmon resonance follows binding to a sensor surface in real time, without labels.

B1: HuA21 scFv-Fc fusion antibody (humanized anti-ErbB2 antibody HuA21, wild type) (scFv, V domains shown)
VH: QVQLVQSGAEVVKPGASVKISCKASGYSFTGYFINWVKQNPGQRLEWIGHISSSYATSTYNQKFKGKATLTVDTSASTAYMELSSLRSEDTAVYYCVRSGNYEEYAMDYWGQGTLVTVSS
VL: DIVLTQSPDSLAVSLGERVTINCKSSQTLLYSNNQKNYLAWYQQKPGQSPKLLISWAFTRKSGVPDRFSGSGSGTDFTLTISSVQAEDVAVYYCQQYSNYPWTFGAGTKLEIK
notes: the HuA21 scFv gene is deposited in GenBank under KP749832; also called HuA21 (wt); wild-type HuA21; source: Expi293, transfected; conditioned medium (screening ELISA); purified by Protein A and Superdex G200 size-exclusion chromatography (SPR)
Turning to B1, the Kd (commonly the concentration at which binding is half-saturated) worked out at 4.03 nM; the koff (in general, the first-order rate constant of dissociation) was determined as 0.000262 s⁻¹; the on-rate constant (kon) – broadly, the second-order rate constant of association – turned out to be 65000 M⁻¹ s⁻¹.
